In article PMC6352406 (Annals of the Rheumatic Diseases, 2018):
Like-named read-outs stand apart in the source and are kept apart here. Each block holds one molecule with its values, some of them ahead of it.

Assays:
[1] = molecular target: Human FcγRIIA 131R (Homo sapiens, FCGR2A 131R allele) (UniProt P12318); experiment: SPR
[2] = molecular target: Human FcγRIIA 131H (Homo sapiens, FCGR2A 131H allele) (UniProt P12318); experiment: SPR
[3] = molecular target: T1, FcγRIIA on human neutrophils (Homo sapiens, endogenous on …, UniProt P12318); experiment: flow cytometry on cells
[4] = molecular target: T1, FcγRIIA on human neutrophils; experiment: flow cytometry on cells; remark: listed apart in the source

Sequence of Human FcγRIIA 131H (Homo sapiens, FCGR2A 131H allele) (P12318 34-317): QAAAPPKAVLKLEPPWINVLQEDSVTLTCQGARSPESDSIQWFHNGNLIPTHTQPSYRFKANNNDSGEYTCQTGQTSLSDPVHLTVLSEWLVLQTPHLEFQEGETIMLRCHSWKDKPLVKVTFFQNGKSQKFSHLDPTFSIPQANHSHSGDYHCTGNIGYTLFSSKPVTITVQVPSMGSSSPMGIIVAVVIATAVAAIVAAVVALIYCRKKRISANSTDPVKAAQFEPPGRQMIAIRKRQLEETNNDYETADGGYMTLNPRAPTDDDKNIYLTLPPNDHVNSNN
Sequence of Human FcγRIIA 131R (Homo sapiens, FCGR2A 131R allele) (P12318 whole entry, looked up, tested part not stated): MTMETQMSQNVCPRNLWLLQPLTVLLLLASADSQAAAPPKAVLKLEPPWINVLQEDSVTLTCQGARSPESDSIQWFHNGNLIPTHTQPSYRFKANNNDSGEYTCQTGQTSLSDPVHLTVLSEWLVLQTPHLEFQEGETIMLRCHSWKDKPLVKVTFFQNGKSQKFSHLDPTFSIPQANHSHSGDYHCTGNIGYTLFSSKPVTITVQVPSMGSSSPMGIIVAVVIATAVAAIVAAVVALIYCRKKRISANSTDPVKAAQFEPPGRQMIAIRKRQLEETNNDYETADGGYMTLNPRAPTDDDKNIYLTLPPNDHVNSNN
T1 sequence (P12318 34-317): as the sequence (P12318 34-317) above

Kd [1]: 0.22 nM | koff [1]: 0.00129 s⁻¹ | kon [1]: 5.95e+06 M⁻¹ s⁻¹ | Kd [2]: 0.22 nM | koff [2]: 0.000681 s⁻¹ | kon [2]: 3.03e+06 M⁻¹ s⁻¹
Molecule: IV.3 Fab

Kd [1]: 0.15 nM | koff [1]: 0.000735 s⁻¹ | kon [1]: 4.98e+06 M⁻¹ s⁻¹ | Kd [2]: 0.13 nM | koff [2]: 0.000337 s⁻¹
Molecule: VIB9600 Fab

EC50 [3]: 3.35 nM | EC50 [4]: 0.03 nM
B1: VIB9600, humanised effector-null anti-FcγRIIA antibody (antibody, V domains shown)
VH: QVQLVQSGAEVKKPGASVKVSCKASGYTFTNYGMNWVRQAPGQRLEWMGWLNTYTGESWYPDDFKGRVTITRDTSASTAYMELSSLRSEDTAVYYCARGDYGYDDPLDYWGQGTLVTVSS
VL: DIVMTQSPLSLPVTPGEPASISCRSSKSLLHTNQNTYLHWFLQKPGQSPQLLIYRMSVLASGVPDRFSGSGSGTDFTLKISRVEAEDVGVYYCMQHLEYPLTFGQGTKLEIK
